The target in this assay is Clostridium difficile strain 630 alanine racemase, recombinant wild type (Clostridium difficile strain 630, UniProt A0AC59G415 1-385). The experiment in a line: SEC. The conditions noted are these: both partners purified.

B1: CdAlr cleavage product, amino acids 1-271 (domain or fragment)
chain: MQKITVPTWAEINLDNLRFNLNNIKNLLEEDIKICGVIKADAYGHGAVEVAKLLEKEKVDYLAVARTAEGIELRQNGITLPILNLGYTPDEAFEDSIKNKITMTVYSLETAQKINEIAKSLGEKACVHVKIDSGMTRIGFQPNEESVQEIIELNKLEYIDLEGMFTHFATADEVSKEYTYKQANNYKFMSDKLDEAGVKIAIKHVSNSAAIMDCPDLRLNMVRAGIILYGHYPSDDVFKDRLELRPAMKLKSKIGHIKQVEPGVGISYGLK
Take B1: the binding result is recorded as “binds”.
